Assay [1] has as its system monoclonal antibody MV-001. Kind of assay: In vitro inhibition assay (ELISA), MV-001 binding to original epitope. Also on record: species or system C57/B16 mice. The note with it: Table 2C; OD at 10 ug peptide compared to original peptide. The procedure:
Different amounts of peptides (concentrations ranging from 10 μg to 0.08 μg; serial dilutions; for MV-002: concentrations ranging from 5 μg to 0.03 μg; serial dilutions), derived from Phage Display were incubated with the monoclonal antibody that was used for the screening procedure. Peptides diminishing subsequent binding of the antibody to the original epitope coated on ELISA plates were considered as inhibiting in this assay.
Legend to Table 2C: the inhibition capacity is coded by the following code: Weak inhibition means more peptide is required to lower AB binding than with the original epitope; strong inhibition means similar peptide amounts are required for mimotope and original epitope for lowering AB binding. Mimotopes are compared to the original peptide as standard. OD at 10 ug peptide used in the assay is used to calculate the competition capacity compared to original peptide.

For assay [2], the system named is monoclonal antibody MV-001. Kind of assay: In vitro binding assay (ELISA), BSA-coupled peptides, parental antibody MV-001. Also on record: species or system C57/B16 mice. To be noted: Table 1C; peptide-BSA on plate, compared to original epitope. The protocol:
Peptides derived from Phage Display as well as variants thereof were coupled to BSA and bound to ELISA plates (1 μM; as indicated in the respective figures) and subsequently incubated with the monoclonal antibody that was used for the screening procedure to analyse binding capacity of identified peptides.
Legend to Table 1C: the binding capacity is coded by the following binding code: 1:X describes the dilution factor of the parental AB

Assay [3] concerns the target DAEFRH-peptide-specific monoclonal antibody (Example 1). In words: inhibition ELISA, competitor plate-bound DAEFRH-C-BSA.
Assay [4] deals with monoclonal antibody MV-002. Kind of assay: ELISA on peptide-BSA; code 3 = strong binding, OD halfmax 1:>320000.
Assay [5] concerns the target monoclonal antibody MV-001. Kind of assay: ELISA on peptide-BSA; code 2 = medium binding, OD halfmax 1:4000-20000.

As to TSFRHGC [p4382], in assay [1], the “Inhibition Capacity” value is on record as 1 (Weaker than original epitope (OD of 10 ug peptide below 3 times of original peptide)). Also, the “Binding Capacity” value in assay [2] is 2 (medium binding :4000-20000).

With DGLLFKHC [p4741], the “Inhibition Capacity” value in assay [1] is 1 (Weaker than original epitope (OD of 10 ug peptide below 3 times of original peptide)). In addition, the “Binding Capacity” value in assay [2] is listed as 3 (strong binding :>20000).

In the case of SAFRHHC [p4387], the “Inhibition Capacity” value in assay [1] is listed as 1 (Weaker than original epitope (OD of 10 ug peptide below 3 times of original peptide)). The “Binding Capacity” value in assay [2] is given as 2 (medium binding :4000-20000). With SHFRHGC [p4389], the “Inhibition Capacity” value in assay [1] is given as 1 (Weaker than original epitope (OD of 10 ug peptide below 3 times of original peptide)). Further, the “Binding Capacity” value in assay [2] is recorded as 2 (medium binding :4000-20000). With HEFRHC [p4803], the “Inhibition Capacity” value in assay [1] is 2 (strong inhibition (as original epitope; OD of 10 ug peptide below 2 times of original peptide)). Besides, the “Binding Capacity” value in assay [2] is given as 3 (strong binding :>20000). On the same counts, the results for EELRHSVC [p4746] are 1 (Weaker than original epitope (OD of 10 ug peptide below 3 times of original peptide)) and 3 (strong binding :>20000). On the same counts, the results for LPFRHGC [p4388] are 1 (Weaker than original epitope (OD of 10 ug peptide below 3 times of original peptide)) and 2 (medium binding :4000-20000). QFKHDLC [p4391]: the “Inhibition Capacity” value in assay [1] is listed as 1 (Weaker than original epitope (OD of 10 ug peptide below 3 times of original peptide)). Further, the “Binding Capacity” value in assay [2] was 2 (medium binding :4000-20000). For TPFRHTC [p4384] the same measures were 1 (Weaker than original epitope (OD of 10 ug peptide below 3 times of original peptide)) and 2 (medium binding :4000-20000). In the case of CSEFKH [p4800], the “Inhibition Capacity” value in assay [1] was 2 (strong inhibition (as original epitope; OD of 10 ug peptide below 2 times of original peptide)). Further, in assay [2], the “Binding Capacity” value is 3 (strong binding :>20000). As to QDFRHYC [p4380], the “Inhibition Capacity” value in assay [1] is given as 1 (Weaker than original epitope (OD of 10 ug peptide below 3 times of original peptide)). The “Binding Capacity” value in assay [2] was 2 (medium binding :4000-20000).

Regarding SEFKHC [p4801], the “Inhibition Capacity” value in assay [1] is reported as 1 (Weaker than original epitope (OD of 10 ug peptide below 3 times of original peptide)). In addition, the “Binding Capacity” value in assay [2] is 3 (strong binding :>20000). As for NWFPHPC [p4392], the “Inhibition Capacity” value in assay [1] is on record as 1 (Weaker than original epitope (OD of 10 ug peptide below 3 times of original peptide)). Further, the “Binding Capacity” value in assay [2] is reported as 1 (weak binding :<4000). In the case of EEFKYSC [p4393], the “Inhibition Capacity” value in assay [1] is 1 (Weaker than original epitope (OD of 10 ug peptide below 3 times of original peptide)). Besides, the “Binding Capacity” value in assay [2] was 2 (medium binding :4000-20000). On to CHEFRH [p4802], for which, in assay [1], the “Inhibition Capacity” value is 2 (strong inhibition (as original epitope; OD of 10 ug peptide below 2 times of original peptide)). For the same molecule, in assay [2], the “Binding Capacity” value was 3 (strong binding :>20000). In assay [3], SWEFRTC [Peptide 4002] yielded a half-maximal inhibitory concentration (IC50) below 0.4 µg/mL.

Consider DRELRIC [Peptide 1235], for which the IC50 in assay [3] is below 0.5 µg/mL. SHQRLWFC [p4674]: the OD halfmax dilution factor of the parental antibody (1:X) (dilutionfactor(1:x)) in assay [4] is above 320000. As to GEIWFEGC [p4680], the OD halfmax dilution factor of the parental antibody (1:X) (dilutionfactor(1:x)) in assay [4] was above 320000. Regarding GELYFRAC [p4677], the OD halfmax dilution factor of the parental antibody (1:X) (dilutionfactor(1:x)) in assay [4] was above 320000. On to ELEFRGC [Peptide 3008], for which, in assay [3], the IC50 was below 5 µg/mL.

NDAKIVFC [p4667]: the OD halfmax dilution factor of the parental antibody (1:X) (dilutionfactor(1:x)) in assay [4] is above 320000. Same read-out and setting: then HQKMIFAC [p4675], with above 320000. As to AEFMHSVC [p4739], the OD halfmax 1:X (dilution factor of the parental antibody at half-maximal OD) (dilutionfactor(1:x)) in assay [5] fell in the range of 4000 to 20000.

With GQLKFPFC [p4690], the OD halfmax dilution factor of the parental antibody (1:X) (dilutionfactor(1:x)) in assay [4] is above 320000. Turning to GEMWFALC [p4671], in assay [4], the OD halfmax dilution factor of the parental antibody (1:X) (dilutionfactor(1:x)) is above 320000.

In the case of GEIKFDHC [p4698], the OD halfmax dilution factor of the parental antibody (1:X) (dilutionfactor(1:x)) in assay [4] is above 320000. The same measure, in the same setting: to HMRLFFNC [p4670] belongs above 320000; to GEIQFGAC [p4699], above 320000. For GEIRFGSC [p4696], in assay [4], the OD halfmax dilution factor of the parental antibody (1:X) (dilutionfactor(1:x)) was above 320000. SFEFRGC [Peptide 3009] displayed an IC50 in assay [3] below 5 µg/mL. In the case of GELWFPC [p4673], the OD halfmax dilution factor of the parental antibody (1:X) (dilutionfactor(1:x)) in assay [4] was above 320000.

In the case of GELQFPPC [p4672], in assay [4], the OD halfmax dilution factor of the parental antibody (1:X) (dilutionfactor(1:x)) was above 320000. In the case of GQIMFPRC [p4686], the OD halfmax dilution factor of the parental antibody (1:X) (dilutionfactor(1:x)) in assay [4] is above 320000. With AYFPHTSC [p4751], the OD halfmax 1:X (dilution factor of the parental antibody at half-maximal OD) (dilutionfactor(1:x)) in assay [5] was 4000 to 20000.

Consider GQIRFDHC [p4669], for which the OD halfmax dilution factor of the parental antibody (1:X) (dilutionfactor(1:x)) in assay [4] was above 320000. The same measure, in the same setting: to GDLKFPLC [p4683] belongs above 320000.

As for GEMQFFIC [p4676], the OD halfmax dilution factor of the parental antibody (1:X) (dilutionfactor(1:x)) in assay [4] was above 320000. The same measure, in the same setting: then GEIRFALC [p4678], with above 320000; and GEIYFERC [p4681], with above 320000. On the same count and under the same terms, then GELFFPKC [p4685], with above 320000. For GMIVFPHC [p4679], the OD halfmax dilution factor of the parental antibody (1:X) (dilutionfactor(1:x)) in assay [4] was above 320000. The same measure, in the same setting: to GEILFGMC [p4689] belongs above 320000; to HMRMYFEC [p4687], above 320000; to GQIKFAQC [p4694], above 320000. Take AEFSHWHC [p4737]: the OD halfmax 1:X (dilution factor of the parental antibody at half-maximal OD) (dilutionfactor(1:x)) in assay [5] fell in the range of 4000 to 20000.

Take GQIQFPLC [p4697]: the OD halfmax dilution factor of the parental antibody (1:X) (dilutionfactor(1:x)) in assay [4] is above 320000.

For IGFRHDSC [p4742], the OD halfmax 1:X (dilution factor of the parental antibody at half-maximal OD) (dilutionfactor(1:x)) in assay [5] lay within 4000 to 20000. Consider GQILFPVC [p4684], for which the OD halfmax dilution factor of the parental antibody (1:X) (dilutionfactor(1:x)) in assay [4] is above 320000.

Turning to THQRLWFC [p4693], the OD halfmax dilution factor of the parental antibody (1:X) (dilutionfactor(1:x)) in assay [4] was above 320000.
